We go through one substance from patent US20130177981A1.

Holding throughout (assay): cell-based or functional assay
The target in test [1] is gp41 of HIV-1 strain CC 1/85 (HIV-1 strain CC 1/85).
The target of test [2] is gp41 of HIV-1 strain HC4 (HIV-1 strain HC4).
Test [3] addresses gp41 of HIV-1 strain DJ258 (HIV-1 strain DJ258).
Test [4] has as its target gp41 of HIV-1 strain NL4-3 (HIV-1 strain NL4-3).

In test [1], T-20 (peptide) returned an Inhibition of HIV-1 infectivity, IC50 (nM), CC 1/85 of 1400 nM. Moreover, the Inhibition of HIV-1 infectivity, IC50 (nM), HC4 in test [2] worked out at 250 nM. In test [3], this substance yielded an Inhibition of HIV-1 infectivity, IC50 (nM), DJ258 of 330 nM. The substance also gave an Inhibition of HIV-1 infectivity, IC50 (nM), NL4-3 in test [4] of 700 nM.
